From patent US20210163545A1
Numbering of substitutions follows the chain as printed.

B1: Recombinant immunoglobulin κ chain binding protein KBP6 (protein, part only; not given: further domain copies and linkers, part only)
chain, part: KETPETPEEPKEEVTIKVNLIFADGKTQTATFKGTFEEATAEAYRYADLLAKVNAGEYTADLEDGGYTINIKFAGK
B2: Recombinant immunoglobulin κ chain binding protein KBP7 (protein, part only; not given: further domain copies and linkers, part only)
chain, part: B1 chain, part with A55Y
B3: Recombinant immunoglobulin κ chain binding protein KBP9 (protein, part only; not given: further domain copies and linkers, part only)
chain, part: KETETEEPKEEVTIKVNLIFADGKTQTATFKGTFEEATAEAYRYADLLAKVNGEYTADLEDGGYTINIKFAGK
B4: Recombinant immunoglobulin κ chain binding protein KBP8 (protein, part only; not given: further domain copies and linkers, part only)
chain, part: KETETPEEPKEEVTIKVNLIFADGKTQTATFKGTFEEATAEAYRYADLLAKVNGEYTADLEDGGYTINIKFAGK
B5: Recombinant type immunoglobulin κ chain binding protein KBP0 (protein)
chain: KETPETPEEPKEEVTIKVNLIFADGKTQTATFKGTFEEATAEAYRYADLLAKVNGEYTADLEDGGYTINIKFAGKKETPETPEEPKEEVTIKVNLIFADGKTQTATFKGTFEEATAEAYRYADLLAKVNGEYTADLEDGGYTINIKFAGKKETPETPEEPKEEVTIKVNLIFADGKTQTATFKGTFEEATAEAYRYADLLAKVNGEYTADLEDGGYTINIKFAGKKETPETPEEPKEEVTIKVNLIFADGKTQTATFKGTFEEATAEAYRYADLLAKVNGEYTADLEDGGYTINIKFAGK
B6: Recombinant immunoglobulin κ chain binding protein KBP2 (protein)
chain: B5 chain with K26R, K101R, K176R, K251R
B7: Recombinant immunoglobulin κ chain binding protein KBP1 (protein)
chain: B5 chain with K17R, K92R, K167R, K242R
B8: Recombinant immunoglobulin κ chain binding protein KBP3 (protein)
chain: B5 chain with T35R, T110R, T185R, T260R
B9: Recombinant immunoglobulin κ chain binding protein KBP5 (protein)
chain: B5 chain with N54Q, N129Q, N204Q, N279Q
B10: Recombinant immunoglobulin κ chain binding protein KBP4 (protein)
chain: B5 chain with Y44F, Y119F, Y194F, Y269F

What follows are binders tested against Fab (assay: static binding capacity: Fab incubated with ligand-immobilized porous particles, eluted at pH 2.5, absorbance).

| Binder | SBC without alkali treatment (mg/mL-particles) |
| --- | --- |
| B1 | 61 |
| B2 | 64 |
| B3 | 60 |
| B4 | 60 |
| B5 | 60 |
| B6 | 59 |
| B7 | 56 |
| B8 | 58 |
| B9 | 63 |
| B10 | 47 |

What follows are binders tested against Fab (assay: static binding capacity for Fab after 0.1 M NaOH for 24 h, relative to SBC of the same particles without alkali treatment).

| Binder | SBC retention ratio (%) after alkali treatment [%] |
| --- | --- |
| B1 | 58 |
| B2 | 73 |
| B3 | 42 |
| B4 | 45 |
| B5 | 39 |
| B6 | 46 |
| B7 | 46 |
| B8 | 48 |
| B9 | 51 |
| B10 | 49 |
